# Experimental data reported in the supplement of paper PMC10126150.
# ± gives the standard deviation of the averaged measurements.
# System: ATP
# Experiment: switch fluorescence ratio, 500 uM ATP over buffer (Cy3 cluster intensity, sum of 5 cycles each) (fold (ratio)); higher = stronger signal-on switching upon ATP binding; sequences stand for … in TCGTCGGCAGCGTCAGATGTGTATAAGAGACAGTTTTTTTTTTTTTTTTTTTTTTTTT…TC
# Conditions: aptamer strand: ATP DNA aptamer (quencher-CACCTGGGGGAGTATTGCGGAGGAAGG + anchor), 100 nM annealed; ATP concentration: 500 uM
# How it was run: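 Cy3-labelled switching-strand clusters on a modified Illumina MiSeq flow-cell were annealed to 100 nM quencher-labelled ATP aptamer, imaged in selection buffer, then imaged after 15 min with 500 uM ATP at 22 °C. Five buffer/ATP cycles ran, with NaOH stripping and re-annealing between them. The fluorescence ratio is summed target-cycle over summed buffer-cycle Cy3 intensity per cluster, averaged per switch-domain sequence. Clusters outside 100-1000 RFU were excluded.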
# 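Also: ATP exposure 15 min at 22 °C before imaging.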
row,Sequence,switch fluorescence ratio
1,AGTGGGGAAT,1.01 ± 0.049
2,GGGGTCGGCC,0.995 ± 0.018
3,AGTGGAAAC,1.0032 ± 0.00099
4,TTATGGCTTC,0.993 ± 0.029
5,CTAGTTAGGC,0.9844 ± 0.0091
6,GGAAAATAGG,0.977 ± 0.061
7,GAAAACTTAA,1.029 ± 0.006
8,ATTGCGCCCG,1.032 ± 0.0088
9,CCATTTGAGA,0.998 ± 0.022
10,AATGTCGACG,0.994 ± 0.036
11,TAACTAAATT,0.98675 ± 0.00031
12,AGTCGTTCAG,0.949 ± 0.023
13,GGGTCAACGA,1.03 ± 0.051
14,GCGGGTATGT,1.04 ± 0.023
15,GACTTCCATT,1.07 ± 0.016
16,TTTCTATGGA,1.0135 ± 0.0006
17,AAGGGCTTCT,1.01 ± 0.018
18,GTTATTTGTT,1.068 ± 0.0071
19,TCGAGCTTGT,1 ± 0.024
20,GCCAGGGGTG,1.47 ± 0.033
21,TATATATGTA,1.01 ± 0.05
22,ATTATAACAG,1.038 ± 0.009
23,GCTTGTTATG,0.9931 ± 0.007

row,Sequence,switch fluorescence ratio
1,AGCCCTGGCG,0.9504 ± 0.0071
2,GGGGAGGTTT,0.966 ± 0.02
3,TTTCTGACGT,1.09 ± 0.057
4,GAGTAGGACC,1.03 ± 0.016
5,CTCGGGGTGT,1.02 ± 0.018
6,GGCAGCGTGG,0.994 ± 0.041
7,TCCCCAGCAC,3.1 ± 2.7
8,TGGTAATCAA,1.01 ± 0.039
9,GGGATCGGGG,0.988 ± 0.019
10,TTTATAAGTT,0.986 ± 0.023
11,GATTTGGGT,0.997 ± 0.051
12,TGGTTTGGGA,1 ± 0.029
13,GCAGAGGGTC,0.9998 ± 0.0066
14,TTGGGGTATT,1.01 ± 0.025
15,ACGTTAGTCG,0.9687 ± 0.0095
16,TTCGGGCGTC,1.01 ± 0.039
17,TTTACAGGAT,0.993 ± 0.024
18,GGAGACGGTT,1 ± 0.051
19,TTATTTATCG,0.987 ± 0.026
20,GAGGTTATAT,0.992 ± 0.017
21,GTTACAAGAC,1.21 ± 0.048
22,TTTCATATGC,0.995 ± 0.073
23,CGATAATTTA,1 ± 0.053

row,Sequence,switch fluorescence ratio
1,TAGCATAACC,1.181 ± 0.0097
2,GGGGTTAGCG,0.991 ± 0.021
3,TATCGCAATG,3.63 ± 0.32
4,GTTGATTGGG,0.994 ± 0.029
5,AAGGCTGAGG,0.985 ± 0.018
6,ATCATGGGGG,0.986 ± 0.022
7,CCAAAGTATA,1.166 ± 0.0013
8,AAGAGAGGGT,0.998 ± 0.042
9,CCTCGGACTT,1.57 ± 0.48
10,ATATATTAAA,0.981 ± 0.03
11,GACGTTTTCC,0.995 ± 0.097
12,GTCGTAGGGA,0.973 ± 0.013
13,AAATTAATGT,1 ± 0.018
14,AAGGGACAAA,1.04 ± 0.014
15,TACGAGGGGA,1.03 ± 0.026
16,ATGAGACGTG,1.04 ± 0.037
17,CATATTTTAG,0.989 ± 0.032
18,TTAGCGGGA,1 ± 0.023
19,ATTTCGACAC,1.0254 ± 0.001
20,TTAAGGGGGA,1.01 ± 0.025
21,GTATGAATGT,0.985 ± 0.03
22,GGTACGAAAC,1.68 ± 0.75
23,TGATTAGAAG,0.985 ± 0.034

row,Sequence,switch fluorescence ratio
1,TCTCTTGCGG,1.1 ± 0.2
2,GTGGGACAGG,1.01 ± 0.015
3,GGGATGGGGC,1.04 ± 0.042
4,AAGAGCACT,1.05 ± 0.048
5,TTGAAAGTG,0.9785 ± 0.0043
6,CAAAACCTGA,1.2 ± 0.15
7,TATGGTCATT,0.99 ± 0.015
8,TAGTGGTTCG,1.02 ± 0.023
9,CAGACAGTTT,0.993 ± 0.013
10,TACCGGTCGG,0.999 ± 0.019
11,AGGTTGAGG,1.01 ± 0.021
12,TTCTACGGTC,1.01 ± 0.03
13,TCTTGGGCAT,1.01 ± 0.04
14,TCGGGGCTGT,0.993 ± 0.026
15,GAAGGCAGTC,1.13 ± 0.04
16,TTTTTGAGGA,0.995 ± 0.017
17,TTATGGGTTG,1.002 ± 0.0039
18,ATAAGACGTT,1.01 ± 0.041
19,AATAGGTCAT,1.02 ± 0.028
20,GGTTGGAATT,1.01 ± 0.025
21,GCGCTAGGCT,1.01 ± 0.08
22,GGATCTTAGT,0.996 ± 0.013
23,GAGCTCACGG,1.02 ± 0.017

row,Sequence,switch fluorescence ratio
1,CGGACTAGGG,1.04 ± 0.022
2,TGAAACGCTG,1.06 ± 0.04
3,TCGAAAGTGT,1 ± 0.025
4,TGCCGGACGA,1.065 ± 0.0037
5,GGGTGTGCTT,1.04 ± 0.029
6,TTGTTGTGGG,0.986 ± 0.024
7,CTGGGTTGGG,1.01 ± 0.043
8,CTCTCGGCCG,1.03 ± 0.12
9,ACATTTCTCA,1.04 ± 0.021
10,TGATTGGTGT,1.02 ± 0.011
11,GAATGGGTGA,0.983 ± 0.028
12,TGTCGCTGGG,1.02 ± 0.01
13,AGGGAGAACG,0.961 ± 0.047
14,CGTATGATAG,1.015 ± 0.0047
15,TTTTACCCGT,1.01 ± 0.013
16,TTTGATCTGC,0.961 ± 0.031
17,GATTTAATAG,0.9625 ± 0.0076
18,TAGTTTAGTT,1 ± 0.015
19,TGAGGCTAGG,1.02 ± 0.017
20,TAATAATATT,1 ± 0.018
21,TTATATTGAT,1.017 ± 0.0029
22,GATGGATCGG,1.01 ± 0.017
23,CATTGTTGAT,0.989 ± 0.017

row,Sequence,switch fluorescence ratio
1,GGGGTCTTAT,0.996 ± 0.038
2,GGGACGGATT,1 ± 0.021
3,TTGAGGACAG,1.02 ± 0.025
4,GAGGGGACAG,0.979 ± 0.035
5,GACTGGGACT,1.08 ± 0.05
6,GAGTTTGGG,1 ± 0.02
7,CCAAGTAAGG,1.08 ± 0.031
8,TTTATGTTTC,0.98 ± 0.025
9,CAGGGAATAG,1.07 ± 0.049
10,GATCGAGGCG,0.9569 ± 0.0055
11,GCTCTAATTG,1.008 ± 0.0058
12,TTCGGAATTT,0.9882 ± 0.0083
13,AGGGTCTTTT,1.03 ± 0.053
14,TAATATCCTA,1 ± 0.048
15,TCGTTATTCT,1.04 ± 0.067
16,AATAAATCTA,1.039 ± 0.0016
17,CCATCGGCTG,1.06 ± 0.038
18,GATAGAGGGA,0.999 ± 0.01
19,ATGTTTTCGG,0.99 ± 0.044
20,CCAGGATGCG,0.971 ± 0.035
21,TTTGGGTATT,0.9684 ± 0.0013
22,ATCAATGAAC,1.05 ± 0.018
23,ATAATGGGTT,1.05 ± 0.058

row,Sequence,switch fluorescence ratio
1,ACTGATGTAC,1.09 ± 0.012
2,CGGGGAAGGT,1 ± 0.031
3,ATTAGGGCAT,1.006 ± 0.0075
4,GGGGTCGTCT,1.02 ± 0.015
5,CCGATTCGGG,1.012 ± 0.0064
6,TTTTATGGGC,1.01 ± 0.025
7,CGTAAGCGAG,1.03 ± 0.062
8,AAAGAGCAAG,1.11 ± 0.034
9,TCCATCTGGG,1.01 ± 0.032
10,CGCTGCACAT,2.21 ± 0.045
11,TTTGCCAGTT,0.9847 ± 0.0019
12,TGCGGCGAGG,1.016 ± 2e-05
13,CGTTAAGGGT,0.98 ± 0.031
14,TCTTCGGGGG,1.07 ± 0.032
15,TGCCCGGGGT,1.05 ± 0.036
16,AATAGGGCG,1.038 ± 0.0084
17,GACACTAAGG,1.01 ± 0.038
18,GCGGAAGACG,1.35 ± 0.6
19,AAAATTATGG,0.968 ± 0.02
